Results reported in article PMC2797226 (The Journal of Biological Chemistry, 2009).

T1: His6-tagged Lhs1p (wild type) (S. cerevisiae, UniProt P36016 21-881)
T1 sequence: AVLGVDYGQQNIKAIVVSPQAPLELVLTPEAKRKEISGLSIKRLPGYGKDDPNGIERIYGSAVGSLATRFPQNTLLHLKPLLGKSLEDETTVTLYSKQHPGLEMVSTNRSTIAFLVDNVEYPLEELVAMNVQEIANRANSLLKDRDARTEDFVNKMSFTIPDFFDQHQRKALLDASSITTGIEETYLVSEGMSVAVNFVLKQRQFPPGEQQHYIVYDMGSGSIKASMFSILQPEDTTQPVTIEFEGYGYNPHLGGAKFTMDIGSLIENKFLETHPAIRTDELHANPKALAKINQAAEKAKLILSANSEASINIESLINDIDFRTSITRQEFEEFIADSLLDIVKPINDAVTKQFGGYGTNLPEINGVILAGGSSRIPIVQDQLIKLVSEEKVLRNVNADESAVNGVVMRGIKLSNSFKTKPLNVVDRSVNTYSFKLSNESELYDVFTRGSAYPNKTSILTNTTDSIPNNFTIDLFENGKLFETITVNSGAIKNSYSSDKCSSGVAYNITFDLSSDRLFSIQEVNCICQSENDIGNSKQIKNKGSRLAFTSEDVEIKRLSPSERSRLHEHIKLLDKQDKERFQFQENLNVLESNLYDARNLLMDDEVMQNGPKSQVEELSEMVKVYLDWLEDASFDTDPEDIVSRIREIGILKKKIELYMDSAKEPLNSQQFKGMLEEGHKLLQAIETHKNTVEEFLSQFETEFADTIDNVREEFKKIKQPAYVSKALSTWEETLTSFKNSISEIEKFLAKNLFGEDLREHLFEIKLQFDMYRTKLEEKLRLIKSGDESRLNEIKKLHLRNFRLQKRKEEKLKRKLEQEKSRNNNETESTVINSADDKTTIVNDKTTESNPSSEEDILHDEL


Target: T1, His6-tagged Lhs1p (wild type)
Experiment: pull-down

| binding result | Binder |
| --- | --- |
| binds | GST-tagged Kar2p (wild type) (natural protein) not shown |
| binds | GST-tagged Kar2p(G246D) (natural protein) not shown |
